Experimental data reported in patent US20250179187A1, “ANTI PD-L2 ANTIBODY” (REJUVERON SENESCENCE THERAPEUTICS AG, priority 2022, published 2025).
Changes are numbered by the printed parent chain. Blank lines part the entries; values can stand above or below the molecule they belong to.

Legend:
human PD-L2 antigen [1] = target: T1, human PD-L2 antigen (Homo sapiens, UniProt Q9BQ51); experiment: Single cycle kinetics on Biacore 8K, binding to human PD-L2 antigen; settings: Table 2, cell culture supernatants
T1 sequence (Q9BQ51 20-273): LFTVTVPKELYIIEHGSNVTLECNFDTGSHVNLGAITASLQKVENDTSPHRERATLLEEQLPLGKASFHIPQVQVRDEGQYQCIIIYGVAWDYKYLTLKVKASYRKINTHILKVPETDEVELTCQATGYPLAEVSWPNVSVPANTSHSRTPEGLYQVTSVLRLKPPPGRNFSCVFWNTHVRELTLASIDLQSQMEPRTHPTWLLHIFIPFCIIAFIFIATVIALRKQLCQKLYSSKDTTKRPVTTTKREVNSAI
Source text: Table 2: Single cycle kinetic parameters of chimeric (VH0/VK0) and humanized variants (tested as cell culture supernatants) binding to human PD-L2 antigen as determined using the Biacore 8K. As used herein, the term “KD” is intended to refer to the dissociation equilibrium constant of a particular antibody-antigen interaction, ka is the binding rate constant and kd is the dissociation rate constant. The binding affinity of antibodies of the disclosed invention may be measured or determined by standard antibody-antigen assays. The relative KD was calculated by dividing the KD of the humanized variant by that of the VH0/VK0 assayed in the same experiment.

human PD-L2 antigen [2] = target: T1, human PD-L2 antigen; experiment: as above; settings: Table 3; preferred embodiments by Biacore

B1: VH4/VK2: humanized anti-PD-L2 variant; SEQ ID NO: 5/SEQ ID NO: 11 (antibody, V domains shown)
VH: QVQLVQSGAEVKKPGSSVKVSCKASGYAFSNYFIEWVKQPPGKGLEWIGLNIPGSGGSNYAEKFKGRVTITADKSTSTAYMELSSLRSEDTAVYYCARRRLPPDWYFDVWGQGTTVTVSS
VL: DVVMTQSPLSLPVTLGQPASISCRSSQSLVHSDGNTYLHWYQQKPGQPPKLLIYKVSNRFSGVPDRFSGSGSGTDFTLKISRVEAEDVGVYYCSQSTHVPWTFGGGTKVEIK
kd (human PD-L2 antigen [1]): 0.000129 s⁻¹
kd (human PD-L2 antigen [2]): 0.000129 s⁻¹

B2: VH1/VK0: anti-PD-L2 variant on hIgG1; SEQ ID NO: 2/SEQ ID NO: 9 (antibody, V domains shown)
VH: B1 VH with V11L, V68A, R87T, T91S, Y95F
VL: B1 VL with S7T, T14S, Q17D, P18Q, Q42L, P48S, V88L, Y92F, V109L
modifications: human IgG1 constant regions
kd (human PD-L2 antigen [1]): 0.000109 s⁻¹

B4: VH6/VK1: humanized anti-PD-L2 variant; SEQ ID NO: 6/SEQ ID NO: 10 (antibody, V domains shown)
VH: B1 VH with A28S
VL: B1 VL with Y92F
kd (human PD-L2 antigen [1]): 0.000121 s⁻¹
kd (human PD-L2 antigen [2]): 0.000121 s⁻¹

B6: VH7/VK2: humanized anti-PD-L2 variant; SEQ ID NO: 7/SEQ ID NO: 11 (antibody, V domains shown)
VH: B1 VH with V11L, V68A
VL: B1 VL
kd (human PD-L2 antigen [1]): 0.000118 s⁻¹
kd (human PD-L2 antigen [2]): 0.000118 s⁻¹

B8: VH8/VK2: humanized anti-PD-L2 variant; SEQ ID NO: 8/SEQ ID NO: 11 (antibody, V domains shown)
VH: B1 VH with V68A
VL: B1 VL
kd (human PD-L2 antigen [1]): 0.000121 s⁻¹
kd (human PD-L2 antigen [2]): 0.000121 s⁻¹

Continued, values first:

kd (human PD-L2 antigen [1]): 0.000128 s⁻¹
kd (human PD-L2 antigen [2]): 0.000128 s⁻¹
B3: VH6/VK2: humanized anti-PD-L2 variant; SEQ ID NO: 6/SEQ ID NO: 11 (antibody, V domains shown)
VH: B1 VH with A28S
VL: B1 VL

kd (human PD-L2 antigen [1]): 9.72e-05 s⁻¹
kd (human PD-L2 antigen [2]): 9.72e-05 s⁻¹
B5: VH0/VK0: chimeric anti-PD-L2 antibody, mouse Fab on human IgG1 backbone; SEQ ID NO: 1/SEQ ID NO: 9 (antibody, V domains shown)
VH: QVQLQQSGAELVRPGTSVKVSCKASGYAFSNYFIEWVKQRPGQGLEWIGLNIPGSGGSNYAEKFKGKATLTADKSSSTAYMQLSSLTSEDSAVYFCARRRLPPDWYFDVWGTGTTVTVSS
VL: B1 VL with S7T, T14S, Q17D, P18Q, Q42L, P48S, V88L, Y92F, V109L
modifications: human IgG1 constant regions

kd (human PD-L2 antigen [1]): 0.000444 s⁻¹
kd (human PD-L2 antigen [2]): 0.000444 s⁻¹
B7: VH6/VK3: humanized anti-PD-L2 variant; SEQ ID NO: 6/SEQ ID NO: 12 (antibody, V domains shown)
VH: B1 VH with A28S
VL: B1 VL with D33G, Y92F
